The text below walks through data of patent US20120020961A1 (INSTITUT NATIONAL DE LA SANTE ET DE LA RECHERCHE MEDICALE …, published 2012).

Where “and” joins values, the source holds several entries; their conditions need not be identical. Equal values may be shown once.

As a reminder, the Kd is the concentration at which binding is half-saturated. A low value points to tighter binding.

B1: murine anti-hPG MAb13 (antibody, V domains shown)
VH: EVQLVESGGGLVQPGGSLKLSCAASGFIFSSYGMSWVRQSPDRRLELVASINTFGDRTYYPDSVKGRFTISRDNAKNTLYLQMTSLKSEDTAIYYCARGTGTYWGQGTTLTVSS
VL: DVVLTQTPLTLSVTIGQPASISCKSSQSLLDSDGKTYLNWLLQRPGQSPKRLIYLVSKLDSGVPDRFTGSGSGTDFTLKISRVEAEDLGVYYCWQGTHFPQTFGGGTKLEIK
notes: Murine C-terminal anti-hPG monoclonal antibody, immunogen C1; also called hybridoma 2C6C3C7
B2: murine anti-hPG MAb19 (antibody, V domains shown)
VH: DVQLQESGPGLVKPSQSLSLTCTVTGYSITSDYAWNWIRQFPGNKLEWMGYISFSGYTSYNPSLKSRISVTRDTSRNQFFLQLTSVTTEDTATYYCAREVNYGDSYHFDYWGQGTIVTVSS
VL: QLALTQSSSASFSLGASAKLTCTLSSQHRTYTIEWYQQQSLKPPKYVMEVKKDGSHSTGHGIPDRFSGSSSGADRYLSISNIQPEDEAIYICGVGDAIKGQSVFVFGGGTKVTVL
notes: Murine N-terminal anti-hPG monoclonal antibody, immunogen N2; also called hybridoma 1B3B4F11
B3: murine anti-hPG MAb4 (antibody, V domains shown)
VH: QVQLQQSGAELMKPGASVKISCKATGYTFSSSWIEWLKQRPGHGLEWIGEFLPGSGSTDYNEKFKGKATFTADTSSDTAYMLLSSLTSEDSAVYYCATDGNYDWFAYWGQGTLVTVSA
VL: DLVMTQTPLSLPVSLGDQASISCRSSQSLVHSSGVTYLHWYLQKPGQSPKLLIYKVSNRFSGVPDRFSGSGSGTDFTLKISRVEAEDLGVYFCSQSTHVPPTFGSGTKLEIK
notes: Murine N-terminal anti-hPG monoclonal antibody, immunogen N2; also called hybridoma 20D2C3G2
B4: murine anti-hPG MAb16 (antibody, V domains shown)
VH: QVQLQQSGAELVKPGASVKLSCKASGYTFTSYYMYWVKQRPGQGLEWIGEINPSNGGTNFNEKFKSKATLTVDKSSSTAYMQLSSLTSEDSAVYYCTRGGYYPFDYWGQGTTLTVSS
VL: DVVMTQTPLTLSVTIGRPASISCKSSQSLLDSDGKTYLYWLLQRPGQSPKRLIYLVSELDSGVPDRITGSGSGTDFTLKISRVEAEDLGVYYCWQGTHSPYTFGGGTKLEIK
notes: Murine N-terminal anti-hPG monoclonal antibody, immunogen N2; also called hybridoma 1E9D9B6
B5: murine anti-hPG MAb3 (antibody, V domains shown)
VH: EVQLQQSGTVLARPGASVKMSCKASGYIFTSYWVHWVKQRPGQGLEWIGGFYPGNSDSRYNQKFKGKATLTAVTSASTAYMDLSSLTNEDSAVYFCTRRDSPQYWGQGTTLTVSS
VL: DVLMTQTPLSLPVSLGDQASISCRSSQSIVHSNGNTYLEWYLQKPGQSPKLLIYKVSNRFSGVPDRFSGSGSGTDFTLKISRLEAEDLGVYYCFQGSHVPFTFGGGTKLEIK
notes: Murine N-terminal anti-hPG monoclonal antibody, immunogen N2; also called hybridoma 6B5B11C10
B6: murine anti-hPG MAb8 (antibody, V domains shown)
VH: EVQLVESGGGLVKPGGSLKLSCAASGFTFTTYAMSWVRQTPEKRLEWVATISSGGTYTYYPDSVKGRFTISRDNAKNALYLQMSSLRSEDTAMYYCATQGNYSLDFWGQGTSLTVSS
VL: DIVMTQAASSNPVTLGTSASISCRSSKSLRHTKGITFLYWYLQKPGQSPQLLIYQMSNLASGVPDRFSSSGSGTDFTLRISRVEAEDLGVYYCAQNLELPLTFGAGTKLELK
notes: Murine C-terminal anti-hPG monoclonal antibody, immunogen C1; also called hybridoma 1C10D3B9

In the assay the target is T1, mature human progastrin (human, UniProt P01350 22-101).
T1 construct: In the spheroid assays the progastrin is made by the human liver cancer cells themselves; also called hPG; PG
T1 sequence: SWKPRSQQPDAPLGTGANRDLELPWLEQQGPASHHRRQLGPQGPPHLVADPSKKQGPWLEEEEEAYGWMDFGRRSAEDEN
In words: measured KD; method not named at the table (Example 4 describes Proteon SPR, antibody captured by anti-mouse IgG, hPG injected).
As to B1, the dissociation constant (Kd) was 0.6 nM and 0.612 nM.
For the molecule B2, the Kd was 0.7 nM and 0.779 nM.
As for B3, the figure is 3.5 nM; as for B4, 0.2 nM and 0.278 nM; as for B5, 6.4 nM.
The value for B6 was 0.1 nM and 0.108 nM.
